Measurements: patent US20260069689A1 (Regeneron, published 2026)
Residue numbers refer to the chain shown, from its start.

B1: mAb15164 (antibody, V domains shown)
VH: EVQLVESGGGLVQPGGSLRLSCAASGFAVSSNYMTWVRQAPGKGLEWVATIYSGDSTYYADSVKGRFTISRHNSKNTLSLQMNSLRADDTAIYYCARLSGVLSGTYNGAFDIWGQGTMVTVSS
VL: QSALTQPASVSGSPGQSITISCTGTSSDFGNYNIVSWYQQHPGQAPKVMIYEGNKRPSGVSNRFSGSKSGHTASLTISGLQAEDEADYYCSSYAGSSTWVFGGGTKLTVLG
B2: mAb15166 (antibody, V domains shown)
VH: EVQLVESGGGLVQPGGSLRLSCAASGFTVTSNYMSWVRQAPGKGLEWVSAIYSGESTYYADSVKGRFTISRDSSKNTLYLQMNSLRVEDTAVYYCASIHDYSNYVGGFDPWGQGTLVTVSS
VL: B1 VL with T25P, N31S, I34L, Q44K, V48L, N54T, H71N
B3: mAb15165 (antibody, V domains shown)
VH: EVQLVESGGGLVQPGGSLRLSCAASGFTVSSNYMSWVRQAPGKGLEWVSAIYSGDSTYYADSVKGRFTISKDNSKNTLYLQMNSLRGEDTAVYYCARLGGALQAYDGAFDYWGQGTLATVSS
VL: B1 VL with N31S, I34L, Q44K, V48L, N62I, H71N
B4: mAb14247 (antibody)
heavy: not shown
light: QSALTQPASVSGSPGQSITISCTATSSDVGNYNYVSWYQQHPGKAPKLMIYEVSNRPSGVSNRFSGSKSGNTASLTISGLQAEDEADYYCSSYTSSSTPLVFGGGTKLTVLGQPKAAPSVTLFPPSSEELQANKATLVCLISDFYPGAVTVAWKADSSPVKAGVETTTPSKQSNNKYAASSYLSLTPEQWKSHRSYSCQVTHEGSTVEKTVAPTECS
B5: mAb15160 (antibody, V domains shown)
VH: EVQLVESGGGLVQPGGSLRLSCSASGFTFSRYAMYWVRQAPGKGLEYVSAISSDGGSTYDADSVKGRFTISRANSKNTLYLQMSSLRAEDTAVYYCVKGLRELLYYYYGMDVWGQGTTVTVSS
VL: DIQMTQSPSSLSASVGDRVTITCRAGQSISSFLNWYQQKPGKAPKLLIYAASSLQSGVPSRFSGSGSGTDFTLTISSLQPEDFATYYCQQSYITPFTFGPGTKVDIKR
B6: mAb15150 (antibody, V domains shown)
VH: EVQLVETGGGLIQPGGSLRLSCAAPGFIVSSNYMSWVRQAPGKGLEWVSLLYPGGSTYYADSVKGRFTISRDNSKNTLYLQMNSLRADDTAVYYCARVLPIVEDHFDYWGQGTLVTVSS
VL: DIQLTQSPSFLSASVGDRVTITCRASQGMSSYLAWYQKKPGKAPKLLIYGATILQSGVPSRFSGSGSGTEFTLTISSLQPEDFATYYCQQLNSDPLYMYTFGQGTKLEIKR
B7: mAb15170 (antibody, V domains shown)
VH: EVQLVESGGGLVQPGGSLRLSCAATGITVSSNYMSWVRQAPGKGLEWVSLIYSGGSTFYADSVKGRFTISRHNSKNTLYLQMSSLRAEDTAVYYCARDLVDFGMDVWGQGTTVTVSS
VL: DIQLTQSPSSLSASVGDRVTITCRASQGISNYLAWYQQKPGKAPKLLIYAASTLQSGVPSRFSGSGSGTDFTLTISSLQPEDFGTYYCQQLNSDSPTFGQGTKVEIKR
B8: mAb15151 (antibody, V domains shown)
VH: QVQLVESGGGVVQPGRSLRLSCAASGFVFNSYGMHWVRQAPGKGLEWVAVLWYEGSKNYYADSVKGRFTISRDNSKNTLYLQMNSLRAEDTAVYYCARHGSGSFFGYYLDYWGQGTLVTVSS
VL: DIQMTQSPSSLSASVGDRVTITCRASHNINDFLNWYQQKPGKAPRLLIYAASSLQSGVPSRFSGSGSGTDFTLTISSLQPEDFATYYCQESYTTPPTFGQGTKLEIKR
B9: mAb14235 (antibody)
heavy: not shown
light: QSALTQPASVSGSPGQSITISCTATSSDVGTYNYVSWFQHHPGKAPKLMIYEVTNRPSGVSNRFSGSKSGNTASLTISGLQAEDEADYYCSSYTTTSIVFGGGTKLTVLGQPKAAPSVTLFPPSSEELQANKATLVCLISDFYPGAVTVAWKADSSPVKAGVETTTPSKQSNNKYAASSYLSLTPEQWKSHRSYSCQVTHEGSTVEKTVAPTECS
B10: mAb14234 (antibody)
heavy: not shown
light: QSVLTQPPSVSGAPGQRVTISCTGSSSNIGIGYDVHWYQQLPGTVPKLLIYGNTNRPSGVPDRFSGSKSGTSASLAITGLQAEDEADYYCQSYDSSLSSYVFGTGTKVTVLGQPKAAPSVTLFPPSSEELQANKATLVCLISDFYPGAVTVAWKADSSPVKAGVETTTPSKQSNNKYAASSYLSLTPEQWKSHRSYSCQVTHEGSTVEKTVAPTECS
B11: mAb15162 (antibody, V domains shown)
VH: EVQLVETGGGLIQPGGSLRLSCAASEFIVSRNYMSWVRQAPGKGLEWVSLIYSGGSTYYADSVKGRFTISRDNSKNILYLQMNSLRAEDTAVYYCARDRGGISDYWGQGTLVTVSS
VL: DIQMTQSPSSLSASVGDRVTITCQASQDINKYLNWFQQKPGKAPKLLIYDASNLETGVPSRFSGSGSGTDFTFTISSLQPEDIATYYCQQYDNLPRTFGQGTKLEIKR
B12: mAb13458 (antibody)
heavy: not shown
light: AIQMTQSPSSLSASVGDRVTITCRASQDIRNDLGWYQQKPGKAPKLLIYSASSLQTGVPSRFSGSGSGTDFTLTISSLHPEDFATYYCLQDYWYTWTFGQGTKVEIKRTVAAPSVFIFPPSDEQLKSGTASVVCLLNNFYPREAKVQWKVDNALQSGNSQESVTEQDSKDSTYSLSSTLTLSKADYEKHKVYACEVTHQGLSSPVTKSFNRGEC
B13: mAb14230 (antibody)
heavy: not shown
light: EIVLTQSPGTLSLSPGERATLSCRASQTVISTYLAWYQQKPGQSPRLLIYGASSRATGIPDRFSGSGSGTDFTLTISRLEPEDFAVYYCQQYGSSPQLTFGGGTKVEIKRTVAAPSVFIFPPSDEQLKSGTASVVCLLNNFYPREAKVQWKVDNALQSGNSQESVTEQDSKDSTYSLSSTLTLSKADYEKHKVYACEVTHQGLSSPVTKSFNRGEC
B14: mAb15163 (antibody, V domains shown)
VH: EVQLVETGGGLIQPGESLRLSCAASGFIVSTNYMNWVRQAPGKGLEWVSVIYRGGSTYYADSVKGRFTISRDNSKNTLFLQMNSLRAEDTAVYYCARGHEDFDYDTPASGAFDIWGQGTMVTVSS
VL: QSALTQPPSASGSPGQSVTISCTGTSSDVGGHNYVSWYQQHPGKAPKVMIYEVSKRPSGVPDRFSGSKSGNTASLTVSGLQAEDEADYYCSSYAGSNKFVFGTGTKVTVLG
B15: mAb14280 (antibody)
heavy: not shown
light: QSALTQPPSASGSPGQSVTISCTGTSSDVGGYNFVSWYQQHPGKAPKLMIYEVSKRPSGVPDRFSGSKSGNTASLTVSGLQAEDEADYYCSSYAGSNNFVFGTGTKVTVLGQPKAAPSVTLFPPSSEELQANKATLVCLISDFYPGAVTVAWKADSSPVKAGVETTTPSKQSNNKYAASSYLSLTPEQWKSHRSYSCQVTHEGSTVEKTVAPTECS
B16: mAb15161 (antibody, V domains shown)
VH: EVQLVESGGGLVQPGGSLRLSCAASGFTFSSYEMNWVRQAPGKGLEWVSYISSSGSILYYADSVKGRFTASRDNAKNSLYLQMNSLRAEDTGVYYCARREYQLLRPFEFWGQGTLVTVSS
VL: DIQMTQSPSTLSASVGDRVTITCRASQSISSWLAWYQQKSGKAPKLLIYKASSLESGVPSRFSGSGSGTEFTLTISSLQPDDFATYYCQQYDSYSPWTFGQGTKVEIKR

Legend:
[1] = target: SARS-COV-2 RBD-MMH (SARS-CoV-2); assay: SPR 37C, run with dissociation at pH 7.4
[2] = target: SARS-COV-2 RBD-MMH (SARS-CoV-2); assay: SPR 37C
[3] = target: SARS-COV-2 RBD-MMH (SARS-CoV-2); assay: SPR 37C, run with dissociation at pH 5.0
[4] = target: human FcγR3a 176Val allotype receptor (human, UniProt P08637 17-254); assay: cell-based or functional assay

Row | Binder | RBD.mmh Bound at pH 7.4 (RU) [1] | koff [1] | t½ Ratio of pH 7.4 to pH 5.0 [2] | RBD.mmh Bound at pH 7.4 (RU) [3] | koff [3] | t½ [3] | EC50 (M), Jurkat/CD20/spike [4] | Fold induction, Jurkat CD20 [4] | Fold induction, Jurkat/CD20/spike [4]
1 | B1 | 145 RU | 0.00226 s⁻¹ | 0.9 | 159 RU | 0.002 s⁻¹ | 5.8 min | – | – | –
2 | B2 | 65.2 RU | 0.03 s⁻¹ | 1.2 | 60 RU | 0.035 s⁻¹ | 0.3 min | – | – | –
3 | B3 | 110 RU | 0.00164 s⁻¹ | 0.6 | 127 RU | 0.000973 s⁻¹ | 11.9 min | – | – | –
4 | B4 | 40.8 RU | 0.00158 s⁻¹ | 1.2 | 51.9 RU | 0.00191 s⁻¹ | 6.1 min | 1.79e-10 M | 1 fold | 11.3 fold
5 | B5 | 58.2 RU | 0.00218 s⁻¹ | 1 | 61.3 RU | 0.00228 s⁻¹ | 5.1 min | – | – | –
6 | B6 | 87.8 RU | 0.000112 s⁻¹ | 0.1 | 92.6 RU | 1e-05 s⁻¹ | 1160 min | – | – | –
7 | B7 | 120 RU | 0.000107 s⁻¹ | 0.6 | 141 RU | 6.62e-05 s⁻¹ | 174 min | – | – | –
8 | B8 | 219 RU | 0.0068 s⁻¹ | 0.6 | 231 RU | 0.00439 s⁻¹ | 2.6 min | – | – | –
9 | B9 | 71.2 RU | 0.00148 s⁻¹ | 0.8 | 80.8 RU | 0.00119 s⁻¹ | 9.7 min | 1.43e-10 M | 1 fold | 10.8 fold
10 | B10 | 37.9 RU | 0.00221 s⁻¹ | 0.7 | 40.4 RU | 0.00166 s⁻¹ | 7 min | 2.69e-10 M | 1.1 fold | 12.6 fold
11 | B11 | 116 RU | 0.003 s⁻¹ | 1.8 | 131 RU | 0.0054 s⁻¹ | 2.1 min | – | – | –
12 | B12 | 96.5 RU | 0.00161 s⁻¹ | 2.5 | 90.9 RU | 0.00401 s⁻¹ | 2.9 min | 1.43e-10 M | 1.2 fold | 10.2 fold
13 | B13 | 67.6 RU | 0.00771 s⁻¹ | 1.2 | 60.3 RU | 0.00924 s⁻¹ | 1.3 min | 1.79e-10 M | 1.1 fold | 9.8 fold
14 | B14 | 81.9 RU | 0.000494 s⁻¹ | 7.6 | 83.2 RU | 0.00377 s⁻¹ | 3.1 min | – | – | –
15 | B15 | 72.4 RU | 0.024 s⁻¹ | 0.5 | 61.7 RU | 0.0103 s⁻¹ | 1.1 min | 2.67e-10 M | 1.1 fold | 13.5 fold
16 | B16 | 39.8 RU | 0.00113 s⁻¹ | 0.9 | 51.4 RU | 0.00098 s⁻¹ | 11.8 min | – | – | –
